Experimental findings from paper PMC6340302 (ACS chemical biology, 2018) are described below.

Where two headings read alike, the source gives them in different places.

Test [1] deals with T1, dbOphMA (Dendrothele bispora, UniProt A0A4S8L4Q5).
T1 sequence (A0A4S8L4Q5 1-377): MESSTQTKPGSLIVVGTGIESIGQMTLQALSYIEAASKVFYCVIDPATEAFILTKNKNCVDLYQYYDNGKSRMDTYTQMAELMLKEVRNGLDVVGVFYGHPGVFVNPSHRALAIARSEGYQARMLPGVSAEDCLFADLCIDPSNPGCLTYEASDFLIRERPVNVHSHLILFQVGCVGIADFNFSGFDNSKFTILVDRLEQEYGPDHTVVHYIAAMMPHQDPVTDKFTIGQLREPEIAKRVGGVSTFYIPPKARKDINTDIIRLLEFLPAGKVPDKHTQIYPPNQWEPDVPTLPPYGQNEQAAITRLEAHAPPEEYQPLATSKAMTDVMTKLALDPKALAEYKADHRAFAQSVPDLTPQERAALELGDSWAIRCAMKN
Briefly: microscale thermophoresis. Format: binding. A general note: Microscale thermophoresis detects binding through changes in fluorescence in a small temperature gradient.

Test [2] deals with T1, dbOphMA. Briefly: microscale thermophoresis. Format: binding. This is another data set of the same source.
Test [3] deals with dbOphM, the catalytic component of dbOphMA (Met1-Asn377), which lacks the precursor peptide (Dendrothele bispora CBS 962.96). Briefly: crystal structure.
For test [4], the target named is dbOphMA, methyltransferase-precursor fusion protein from Dendrothele bispora CBS 962.96, full-length fusion (residues Met1-Ala417) (Dendrothele bispora CBS 962.96). Briefly: crystal structure.
Test [5] has the same target.

`Nc1ncnc2c1ncn2[C@@H]1O[C@H](CSCC[C@H](N)C(=O)O)[C@@H](O)[C@H]1O` [SAH, S-adenosyl homocysteine]: the equilibrium dissociation constant (Kd) (usually the concentration at which binding is half-saturated) at dbOphMA [1] was 6.88 µM.
On to `C[S@@+](CC[C@H](N)C(=O)O)C[C@H]1O[C@@H](n2cnc3c(N)ncnc32)[C@H](O)[C@@H]1O` [SAM, S-adenosyl methionine], for which the affinity on dbOphMA [2], expressed as Kd, was 80.7 µM.
Turning to “dbOphM, the catalytic component of dbOphMA (Met1-Asn377), which lacks the precursor peptide (domain or fragment)”, the stoichiometry N (as a rule, a count of units in the complex or per binding partner) in test [3] amounted to 2.
“dbOphMA, methyltransferase-precursor fusion protein from Dendrothele bispora CBS 962.96, full-length fusion (residues Met1-Ala417) (enzyme)”: the stoichiometry N in test [4] and in test [5] was 2 each time.
